Numbering of substitutions follows the chain as printed.
Assays:
[1] = tested on: AAVS1 right TALEN (Xanthomonas (engineered)); test: cell_activity; details: Surveyor assay, with left TALEN, 293FT
[2] = tested on: SOX2 TALE-TF (Xanthomonas (engineered)); test: cell_activity; details: endogenous SOX2
[3] = tested on: AAVS1 left TALEN (Xanthomonas (engineered)); test: cell_activity; details: Surveyor assay, with right TALEN, 293FT
[4] = tested on: NN-TALE (RVD screening) (Xanthomonas (engineered)); test: cell_activity; details: luciferase reporter
[5] = tested on: NH-TALE (RVD screening) (Xanthomonas (engineered)); test: cell_activity; details: luciferase reporter
[6] = target: T1, TALE2-NH (CACNA1C site 2 activator) (Xanthomonas (engineered), UniProt P14727 SEQ:1-983); test: cell_activity; HEK 293FT, endogenous mRNA; reporter 2.7x that of NK; details: tags: VP64, 2A-GFP
T1 chain: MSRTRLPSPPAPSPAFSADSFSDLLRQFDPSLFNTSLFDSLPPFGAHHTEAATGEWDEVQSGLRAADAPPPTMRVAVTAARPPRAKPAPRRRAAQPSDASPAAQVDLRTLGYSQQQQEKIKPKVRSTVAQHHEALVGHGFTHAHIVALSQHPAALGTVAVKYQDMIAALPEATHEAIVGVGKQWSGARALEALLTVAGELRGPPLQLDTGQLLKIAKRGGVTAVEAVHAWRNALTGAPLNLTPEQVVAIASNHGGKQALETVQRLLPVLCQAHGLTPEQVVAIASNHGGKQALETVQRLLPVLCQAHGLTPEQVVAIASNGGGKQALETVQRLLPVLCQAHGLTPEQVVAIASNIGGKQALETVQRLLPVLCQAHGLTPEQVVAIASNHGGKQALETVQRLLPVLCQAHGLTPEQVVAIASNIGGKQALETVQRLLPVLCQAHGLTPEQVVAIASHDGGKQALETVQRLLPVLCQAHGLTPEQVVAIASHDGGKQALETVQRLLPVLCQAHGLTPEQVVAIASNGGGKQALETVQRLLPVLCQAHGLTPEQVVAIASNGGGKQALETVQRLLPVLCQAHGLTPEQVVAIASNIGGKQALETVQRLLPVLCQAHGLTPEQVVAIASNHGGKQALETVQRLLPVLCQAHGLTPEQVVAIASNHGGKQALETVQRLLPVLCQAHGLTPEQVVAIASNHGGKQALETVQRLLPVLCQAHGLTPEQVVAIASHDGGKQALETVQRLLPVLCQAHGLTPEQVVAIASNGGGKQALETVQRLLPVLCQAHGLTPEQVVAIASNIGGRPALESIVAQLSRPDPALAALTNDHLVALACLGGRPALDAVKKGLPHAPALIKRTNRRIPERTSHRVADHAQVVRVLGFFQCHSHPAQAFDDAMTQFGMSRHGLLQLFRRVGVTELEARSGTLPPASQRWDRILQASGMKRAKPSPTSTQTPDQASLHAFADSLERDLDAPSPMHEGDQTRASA

[7] = target: T2, TALE2-NN (CACNA1C site 2 activator) (Xanthomonas (engineered), UniProt P14727 SEQ:1-983); test: cell_activity; HEK 293FT, endogenous CACNA1C mRNA; details: tags: VP64, 2A-GFP
T2 chain: T1 chain with H253N, H287N, H389N, H627N, H661N, H695N
Method: Changes in mRNA are measured using qRT-PCR as described previously. VP64, VP64 transcription activation domain. All results are collected from three independent experiments in HEK 293FT cells. Error bars indicate s.e.m.; n=3. FIG. 19(b) discloses SEQ ID NOS 63 and 62, respectively, in order of appearance.
Using qRT-PCR, the performance of NN, NK, NH, and HN for targeting endogenous genomic sequences was further compared. The ability of NN-, NK-, NH-, and HN-TALEs to activate CACNA1C transcription by targeting the two endogenous target sites was tested (FIG. 19b). […] Both TALE 1-NH and TALE2-NH were able to achieve similar levels of transcriptional activation as TALE1-NN and TALE2-NN (˜5 and ˜3 folds of activation for targets 1 and 2, respectively) and twice more than TALE-NK and TALE2-NK (FIG. 19b). […] On the other hand, based on all the results from specificity and endogenous activity tests, the RVD NH seems to be a more suitable substitute for NN than NK when higher targeting specificity is desired, as it also provides higher levels of biological activity. Further testing using additional endogenous genomic targets helps validate the broad utility of NH as a highly specific G-targeting RVD.
For the endogenous gene transcriptional level assay to test the biological activities of TALE activators and TALE repressors, HEK 293FT cells were seeded into 24-well plates. […]

GTCCTAACCACTGTCTTT (double strand) [AAVS1 right TALEN site]
activity (% cleavage (pair)) [1]: < 3.6

SOX2 TALE-TF site
activity (fold activation) [2]: < 5

TGTCCCCTCCACCCCACA (double strand) [AAVS1 left TALEN site]
activity (% cleavage (pair)) [3]: < 3.6

TTCTTGGTTATAAC (double strand) [RVD screen G-reporter]
binding signal (G- to A-reporter activation ratio) [4]: 3.5
binding signal (G- to A-reporter activation ratio) [5]: 16.4

B1: CACNA1C site 2 (dsDNA)
DNA 1: TGGTAGACCTTAGGGCTA
DNA 2: TAGCCCTAAGGTCTACCA
activity [6]: ~3 fold activation
activity [7]: ~3 fold activation
